Assay results from patent publication US20030203372A1, “Analysis method” (priority 2000, published 2003).

Key:
[1] = tested on: primary human cell cultures (11 cell types); assay: Custom gene array, 11 human cell types in normoxia or hypoxia for 6 hr and 18 hr; assay type: cell-based; details: hypoxia/normoxia induction ratio; 18 hr monocyte
Summary of the method: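 Eleven primary, unmodified human cell types (one non-primary neuronal type) held in normoxia or hypoxia for 6 hr and 18 hr. RNA hybridised to duplicate or triplicate custom arrays, normalised per array to reference genes. Expression given relative to each gene's median across all conditions.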

human macrophages = assay: Custom gene array, macrophages with no cytokines, IL-10 or LPS + IFN, in normoxia and hypoxia; assay type: cell-based; details: Table 15, referenced to the median value of that gene throughout all 6 conditions; for mRNA EXPRESSION (experimental condition) #1: #1 no cytokines/normoxia; for mRNA EXPRESSION (experimental condition) #2: #2 no cytokines/hypoxia; for mRNA EXPRESSION (experimental condition) #3: #3 IL-10/normoxia; for mRNA EXPRESSION (experimental condition) #4: #4 IL-10/hypoxia; for mRNA EXPRESSION (experimental condition) #5: #5 LPS/IFN/normoxia; for mRNA EXPRESSION (experimental condition) #6: #6 LPS/IFN/hypoxia
Procedure: Macrophages were derived and cultured as described elsewhere in the specification. A total of 6 experimental conditions were analysed, as shown below. Where cells were treated with cytokines or hypoxia (0.1% oxygen), this was for 6 hr. Lipopolysaccharide (LPS) (from E.coli 026:B6; Sigma), gamma Interferon (IFN) and Interleukin-10 (IL-10) were all used at a final concentration of 100 ng/ml. The effect of gamma Interferon and Lipopolysaccharide is to activate macrophages, with a Th1 biased phenotype, as found in many inflammatory conditions. Interleukin-10 is a Th2 cytokine and de-activates macrophages, and suppresses their effector functions.

[2] = tested on: human breast and ovary tumors; assay: Custom gene array, breast and ovary tumors versus normal adjacent tissue; details: for gene expression level on custom gene array, Breast nor H / gene expression level on custom gene array, Breast nor K / gene expression level on custom gene array, Ovary nor E / gene expression level on custom gene array, Ovary nor F / gene expression level on custom gene array, Ovary nor G: normal adjacent tissue; for gene expression level on custom gene array, Breast nor H / gene expression level on custom gene array, Breast tum H: patient H; for gene expression level on custom gene array, Breast nor K / gene expression level on custom gene array, Breast tum K: patient K; for gene expression level on custom gene array, Breast tum H / gene expression level on custom gene array, Breast tum K / gene expression level on custom gene array, Ovary tum E / gene expression level on custom gene array, Ovary tum F / gene expression level on custom gene array, Ovary tum G: tumor tissue; for gene expression level on custom gene array, Ovary nor E / gene expression level on custom gene array, Ovary tum E: patient E; for gene expression level on custom gene array, Ovary nor F / gene expression level on custom gene array, Ovary tum F: patient F; for gene expression level on custom gene array, Ovary nor G / gene expression level on custom gene array, Ovary tum G: patient G
Text: A study has been performed to examine the expression of these genes in a selection of breast and ovary tumors, comparing expression with normal adjacent tissue from the same patient. There is expected to be a large degree of variation between different patients, and the study here contains only 5 patients with a range of diagnoses.
Patients are designated as Letters:
E: person. Diagnosis: ovarian adenocarcinoma. Normal ovarian tissue derived from an age-matched separate individual.
: person. Diagnosis: poorly differentiated adenocarcinoma. Normal ovarian tissue derived from the same individual.
G: person. Diagnosis: moderately-differentiated adenocarcinoma. Normal ovarian tissue derived from the same individual.
H: person. Diagnosis: invasive ductal carcinoma. Normnal breast tissue derived from the same individual.
K: person. Diagnosis: invasive ductal carcinoma. Normal breast tissue derived from the same individual.
Data normalisation was done per-chip to correct for differences in labelling and hybridization efficiency. Per-gene normalisation was done such that the expression values of each gene are relative to the median value of that gene throughout the series of samples. By comparing the expression values under normal (nor) and tumor (turn) for a single patient, differences in expression between the normal and malignant tissue of that patient can be inferred.

B1: p1F6 (nucleic acid, listed as Homo Sapiens)
DNA: GTCCATCTTGCTGCTGTCCACTTTGGGTTCCATCTTGGGCTCCATCTTGCTCTCACGATTAAAAGCTTCTTTCCTGCTTTCCCCATTCCGACCATCATTTGCACCCCGGTTCTCCCCATGCCGGCCTGCGCTTCCTCCATGTCTGTTCTCCCCGTGCCGATGGCCATCAGTATGACGGCTGCTGCTTTCTGGATGGCGGTATCCATCTCCATGGCGACCACCATCTCCGTGACGTGGACTATCGCTATGCCGATTGCCAGTCTCTCCGTGACTGTGACGGCTGCTGCCCCGGTTCTCAGTATATCTCTCTCTTTTCCCGTTGCTGCCCCCAGTCCCTTCTCGGCTGTTATTCCCTGAAGCTGTGTTGTTGACTCCTTGGGCTCCGGCAGACGGGTAGGTCACAGGGGCACCACTGATGTTGCCAGTATTGCCAAAGCCTGGGATGCCCTTGGCGGCACTGGTGACGGGGCTGTCAGGACTGTTATGGCCCTGTTGTGCTGAGTTAGTTGGAACAGAATTCAAGCTCCCTGCACTAGTCCACCTGCCCCACTGCTTCTTCGCTTCTCTCTTGGAAAGTCCAGTCTCTCCTCGGCTTGCAATGGACCCCAACTGCTCCTGCGCCGCTGGTGTCTCCTGCACCTGCGCTGGTTCCTGCAAGTGCAAAGAGTGCAAATGCACCTCCTGCAAGAAGAGCTGCTGCTCCTGCTGCCCCGTGGGCTGTAGCAAGTGTGCCCAGGGCTGTGTTTGCAAAGGGGCGTCAGAGAAGTGCAGCTGCTGCGACTGATGCCAGGACAACCTTTCTCCCAGATGTAAACAGAGAGACATGTACAAACCTGGATTTTTTTTTTATACCACCTTGACCCATTTGCTACATTCCTTTTCCTGTGAAATATGTGAGTGATAATTAAACACTTTAGACCTGAAAAAAAAAAAAAAAAAAAAAAAAAAAAAAAAAAAAAAAAAAAAAAAAAAAAAAAAAAAAAAAAAAAAAAAAAAAAAAAAAAAAAAAAAAAAAAAAAAAAAAAAAAAAAAAAAAAAAAAAAAAAAAAAAAAAAAAAAAAAAAAAAAAAA
- HIGHEST FOLD CHANGE IN HYPOXIA (hr hypoxia + cell type) [1]: 67.4 (18 hr monocyte) fold
- mRNA EXPRESSION (experimental condition) #1 (human macrophages): 0.44
- mRNA EXPRESSION (experimental condition) #2 (human macrophages): 1.08
- mRNA EXPRESSION (experimental condition) #3 (human macrophages): 0.47
- mRNA EXPRESSION (experimental condition) #4 (human macrophages): 1.06
- mRNA EXPRESSION (experimental condition) #5 (human macrophages): 1.11
- mRNA EXPRESSION (experimental condition) #6 (human macrophages): 2.47

B2: p1F17 (nucleic acid, listed as Homo Sapiens)
DNA: CAGCCTTATAAGCTGAGGGAGTGGAGAGGCCCGGGGCCAGGAAAGCAGAGACAGACAAAGCGTTAGGAGAAGAAGAGAGGCAGGGAAGACAAGCCAGGCACGATGGCCACCTTCCCACCAGCAACCAGCGCCCCCCAGCAGCCCCCAGGCCCGGAGGACGAGGACTCCAGCCTGGATGAATCTGACCTCTATAGCCTGGCCCATTCCTACCTCGGAGGTGGAGGCCGGAAAGGTCGCACCAAGAGAGAAGCTGCTGCCAACACCAACCGCCCCAGCCCTGGCGGGCACGAGAGGAAACTGGTGACCAAGCTGCAGAATTCAGAGAGGAAGAAGCGAGGGGCACGGCGCTGAGACAGAGCTGGAGATGAGGCCAGACCATGGACACTACACCCAGCAATAGAGACGGGACTGCGGAGGAAGGAGGACCCAGGACAGGATCCAGGCCGGCTTGCCACACCCCCCACCCCTAGGACTTATTCCCGCTGACTGAGTCTCTGAGGGGCTACCAGGAAAGCGCCTCCAACCCTAGCAAAAGTGCAAGATGGGGAGTGAGAGGCTGGGAATGGAGGGGCAGAGCCAGGAAGATCCCCCAGAAAAGAAAGCTACAGAAGAAACTGGGGCTCCTCCAGGGTGGCAGCAACAATAAATAGACACGCACGGCAGCCACAGCTTGGGTGTGTGTTCATCCTTGTTAAAAAAAAAAAAAAAAAAAAAAAAAA
- mRNA EXPRESSION (experimental condition) #1 (human macrophages): 0.26
- mRNA EXPRESSION (experimental condition) #2 (human macrophages): 1.78
- mRNA EXPRESSION (experimental condition) #3 (human macrophages): 0.16
- mRNA EXPRESSION (experimental condition) #4 (human macrophages): 0.88
- mRNA EXPRESSION (experimental condition) #5 (human macrophages): 1.16
- mRNA EXPRESSION (experimental condition) #6 (human macrophages): 2.59
- gene expression level on custom gene array, Breast nor H ([2]; Table 18): 1.00
- gene expression level on custom gene array, Breast nor K ([2]; Table 18): 0.92
- gene expression level on custom gene array, Breast tum H ([2]; Table 18): 0.97
- gene expression level on custom gene array, Breast tum K ([2]; Table 18): 1.33
- gene expression level on custom gene array, Ovary nor E ([2]; Table 18): 1.18
- gene expression level on custom gene array, Ovary nor F ([2]; Table 18): 1.27
- gene expression level on custom gene array, Ovary nor G ([2]; Table 18): 0.55
- gene expression level on custom gene array, Ovary tum E ([2]; Table 18): 0.17
- gene expression level on custom gene array, Ovary tum F ([2]; Table 18): 1.47
- gene expression level on custom gene array, Ovary tum G ([2]; Table 18): 1.79
- gene expression level on custom gene array, Breast nor H ([2]; Table 19): 1.00
- gene expression level on custom gene array, Breast nor K ([2]; Table 19): 0.92
- gene expression level on custom gene array, Breast tum H ([2]; Table 19): 0.97
- gene expression level on custom gene array, Breast tum K ([2]; Table 19): 1.33
- gene expression level on custom gene array, Ovary nor E ([2]; Table 19): 1.18
- gene expression level on custom gene array, Ovary nor F ([2]; Table 19): 1.27
- gene expression level on custom gene array, Ovary nor G ([2]; Table 19): 0.55
- gene expression level on custom gene array, Ovary tum E ([2]; Table 19): 0.17
- gene expression level on custom gene array, Ovary tum F ([2]; Table 19): 1.47
- gene expression level on custom gene array, Ovary tum G ([2]; Table 19): 1.79

B3: p1K8 (nucleic acid, listed as Homo Sapiens)
DNA: AGCACAGGACACAGCTGGGTTCTGAAGCTTCTGAGTTCTGCAGCCTCACCTCTGAGAAAACCTCTTTTCCACCAATACCATGAAGCTCTGCGTGACTGTCCTGTCTCTCCTCATGCTAGTAGCTGCCTTCTGCTCTCCAGCGCTCTCAGCACCAATGGGCTCAGACCCTCCCACCGCCTGCTGCTTTTCTTACACCGCGAGGAAGCTTCCTCGCAACTTTGTGGTAGATTACTATGAGACCAGCAGCCTCTGCTCCCAGCCAGCTGTGGTATTCCAAACCAAAAGAAGCAAGCAAGTCTGTGCTGATCCCAGTGAGACCTGGGTCCAGGAGTACGTGTATGACCTGGAACTGAACTGAGCTGCTCAGAGACAGGAAGTCTTCAGGGAAGGTCACCTGAGCCCGGATGCTTCTCCATGAGACACATCTCCTCCATACTCAGGACTCCTCTCCGCAGTTCCTGTCCCTTCTCTTAATTTAATCTTTTTTATGTGCCGTGTTATTGTATTAGGTGTCATTTCCATTATTTATATTAGTTTAGCCAAAGGATAAGTGTCCCCTATGGGGATGGTCCACTGTCACTGTTTCTCTGCTGTTGCAAATACATGGATAACACATTTGATTCTGTGTGTTTTCATAATAAAACTTTAAAATAAAATGCAGACAGTT
- mRNA EXPRESSION (experimental condition) #1 (human macrophages): 0.82
- mRNA EXPRESSION (experimental condition) #2 (human macrophages): 0.40
- mRNA EXPRESSION (experimental condition) #3 (human macrophages): 1.15
- mRNA EXPRESSION (experimental condition) #4 (human macrophages): 0.38
- mRNA EXPRESSION (experimental condition) #5 (human macrophages): 91.4
- mRNA EXPRESSION (experimental condition) #6 (human macrophages): 68.4
- gene expression level on custom gene array, Breast nor H ([2]; Table 19): 1.94
- gene expression level on custom gene array, Breast nor K ([2]; Table 19): 1.75
- gene expression level on custom gene array, Breast tum H ([2]; Table 19): 0.68
- gene expression level on custom gene array, Breast tum K ([2]; Table 19): 1.62
- gene expression level on custom gene array, Ovary nor E ([2]; Table 19): 1.00
- gene expression level on custom gene array, Ovary nor F ([2]; Table 19): 2.48
- gene expression level on custom gene array, Ovary nor G ([2]; Table 19): 1.94
- gene expression level on custom gene array, Ovary tum E ([2]; Table 19): 0.56
- gene expression level on custom gene array, Ovary tum F ([2]; Table 19): 2.29
- gene expression level on custom gene array, Ovary tum G ([2]; Table 19): 0.54
